In one experiment the test system is phospho-pEY. The experiment is described as follows: Protein tyrosine phosphatase activity assay with phospho-pEY substrate. The format is biochemical. To be noted: 5 nM phospho-pEY, 45 min. As to the method:
Several proteins were produced in an in vitro transcription and translation reaction using 1–150 ng of plasmid DNA including: Mock Luciferase (Promega); protein tyrosine phosphatase; non-receptor type 2 (PTP-N2, IMAGE ID# 3872164, Incyte Genomics, CA); and fer (fms/fps related) protein kinase, testis specific 2 clone (Fert2, IMAGE ID# 4485050, Incyte Genomics, CA). The proteins were produced and immobilized on SA coated NPT-IPR plates, as described in Example 7. […]
A tyrosine phosphate substrate was prepared by enzymatically phosphorylating poly(Glu, Tyr). […] The phosphorylation in the product was determined by transferring serially diluted reaction mixture to a streptavidin-coated NPT IPR plate and assaying for phosphorylated-poly(Glu, Tyr) as described in previous examples (see, e.g., Example 7).
The phosphorylated poly(Glu, Tyr) was used as a substrate to measure the phosphatase activity of the purified and immobilized PTP-N2. […] Following this incubation 45 μl of this mixture was transferred to a streptavidin-coated NPT IPR plate and the solution analyzed for phospho-poly(Glu, Tyr) content as described above.

Experiment [1] relates to autophosphorylation (phosphotyrosine). The experiment is described as follows: In vitro kinase library screen: autophosphorylation. The format is biochemical. Put shortly:
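Biotinylated SYK and EphA7 from in vitro transcription/translation, immobilized on streptavidin/avidin plates; autophosphorylation overnight at room temperature with 5 mM MgCl2, 5 mM MnCl2, 100 μM ATP, pH 7.4. Phosphotyrosine detected by Sulfo-TAG anti-phosphotyrosine (45 min) and ECL read-out.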

Experiment [2] deals with T1, pY1068 peptide (SEQ ID NO: 7) (Homo sapiens, UniProt P00533).
T1 construct: phosphotyrosine at Tyr1068 (chemical modification); purchased New England Peptide, Fitchburg Mass; host or cells: chemical synthesis
Description: 96-well screen for phosphopeptide binding proteins, 7-spot IPR plates. The settings on record: two steps of normalization; top 9 clones. As to the method: A screen was conducted using 7-spot IPR plates. The 7 spot NPT IPR plates are described in more detail in copending Provisional Application No. 60/301,932 (entitled “Assay Plates, Reader Systems and Methods for Luminescence Test Measurements”, filed on Jun. 29, 2001, hereby incorporated by reference) and particularly in the description of Plate Type D in Example 6.1 (NPT IPR plate) and U.S. application Ser. Nos. 10/185,274 and 10/185,363, filed Jun. 28, 2002, each hereby incorporated by reference. These plates consist of a 96 wells with 7 zones (spots) for the immobilization of proteins or other reagents. Each spot was coated with BSA conjugated to either a single phosphopeptide or multiple phosphopeptides.
The plates were prepared essentially as described in example 12. The seven spots supported, respectively, the following BSA conjugates IkB, pY992, pY1068, pY1148, Myc, “A”, and “6-P”. “A” refers to a conjugate of BSA with multiple peptides: IkB, pY1148, Myc which were then coupled to BSA. “6-P” refers to a conjugate of BSA with the following multiple peptides: IkB, pY1148, pY992, pY1068, Smad3C.
For the assay, 4 ul from TnT reaction product described above were added to the coated plate containing 50 μl of binding buffer supplemented with 50 ng/well Ru-Streptavidin. The binding reaction was allowed to proceed at room temperature for 1 hour with constant shaking. […] The ECL signals were measured using an imaging plate reader (IPR). The raw data from the IPR reader was then normalized using two steps of normalization. The first round was based on the 50 lowest values for a given specific spot.

The next experiment concerns pEY. Description: In vitro kinase library screen: activity towards pEY. The format is biochemical. The settings on record: 5 ul of expressed protein. Put shortly:
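Kinases made by in vitro transcription/translation, immobilised on streptavidin/avidin plates and washed with Tris/Triton and high-salt buffers. Incubated overnight at room temperature with 5 nM pEY, 100 µM ATP, Mg2+/Mn2+ and vanadate at pH 7.4. Phospho-pEY captured with biotinylated PY20 and detected by Sulfo-TAG anti-phosphotyrosine ECL.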

B1: PTP-N2: protein tyrosine phosphatase, non-receptor type 2, IMAGE ID# 3872164 (protein, UniProt P17706 1-415, looked up)
Tyrosine-protein phosphatase …: MPTTIEREFEELDTQRRWQPLYLEIRNESHDYPHRVAKFPENRNRNRYRDVSPYDHSRVKLQNAENDYINASLVDIEEAQRSYILTQGPLPNTCCHFWLMVWQQKTKAVVMLNRIVEKESVKCAQYWPTDDQEMLFKETGFSVKLLSEDVKSYYTVHLLQLENINSGETRTISHFHYTTWPDFGVPESPASFLNFLFKVRESGSLNPDHGPAVIHCSAGIGRSGTFSLVDTCLVLMEKGDDINIKQVLLNMRKYRMGLIQTPDQLRFSYMAIIEGAKCIKGDSSIQKRWKELSKEDLSPAFDHSPNKIMTEKYNGNRIGLEEEKLTGDRCTGLSSKMQDTMEENSESALRKRIREDRKATTAQKVQQMKQRLNENERKRKRWLYWQPILTKMGFMSVILVGAFVGWTLFFQQNAL
Regarding B1, the ECL signal with phospho-pEY was 70,574.

B2: 3919253: IMAGE clone protein: BMX non-receptor tyrosine kinase (protein)
chain: MDTKSILEELLLKRSQQKKKMSPNNYKERLFVLTKTNLSYYEYDKMKRGSRKGSIEIKKIRCVEKVNLEEQTPVERQYPFQIVYKDGLLYVYASNEESRSQWLKALQKEIRGNPHLLVKYHSGFFVDGKFLCCQQSCKAAPGCTLWEAYANLHTAVNEEKHRVPTFPDRVLKIPRAVPVLKMDAPSSSTTLAQYDNESKKNYGSQPPSSSTSLAQYDSNSKKIYGSQPNFNMQYIPREDFPDWWQVRKLKSSSSSEDVASSNQKERNVNHTTSKISWEFPESSSSEEEENLDDYDWFAGNISRSQSEQLLRQKGKEGAFMVRNSSQVGMYTVSLFSKAVNDKKGTVKHYHVHTNAENKLYLAENYCFDSIPKLIHYHQHNSAGMITRLRHPVSTKANKVPDSVSLGNGIWELKREEITLLKELGSGQFGVVQLGKWKGQYDVAVKMIKEGSMSEDEFFQEAQTMMKLSHPKLVKFYGVCSKEYPIYIVTEYISNGCLLNYLRSHGKGLEPSQLLEMCYDVCEGMAFLESHQFIHRDLAARNCLVDRDLCVKVSDFGMTRYVLDDQYVSSVGTKFPVKWSAPEVFHYFKYSSKSDVWAFGILMWEVFSLGKQPYDLYDNSQVVLKVSQGHRLYRPHLASDTIYQIMYSCWHELPEKRPTFQQLLSSIEPLREKDKH
Take B2: the ECL signal in experiment [1] was 443,933. The “normalized ECL signal, pY1068 spot” value in experiment [2] worked out at 3. The HTS signal in the experiment on pEY was 523,662.

For the origin of these results see patent US7063946B2, “Methods, reagents, kits and apparatus for protein function analysis” (Meso Scale Technologies, LLC., priority 2001, dated 2006).
